The values below come from publication PMC3495951.

The test addresses EGFP-H2B (UniProt P06899). Briefly: FRET or BRET; FLIM-FRET in living cells at 37°C; EGFP fusion as donor, mCherry fusion as acceptor; two-photon excitation at 890 nm; FRET efficiency = 1 - (tauDA/tauD), tauD from cells with mCherry-C1; control cells and TSA-treated cells. (In general: BRET reads energy transfer from a luciferase to a nearby fluorophore.)

“mCherry-SRSF1 (from UniProt Q07955 1-248) (natural protein)” yielded an FRET efficiency (minor population) of 6%.
